{"source": "patent US8686110B2", "about": "“Therapeutic pro-apoptotic BH3-like molecules and methods for generating and/or selecting the same” (The Walter and Eliza Hall Institute of Medical Research, priority 2005, dated 2014)", "molecular_target": "T1, Mcl-1 (Mus musculus, UniProt P97287)", "T1 construct": "GST (cleaved yes); made in house; host or cells: E. coli", "T1 sequence (P97287 152-308 limits assumed)": "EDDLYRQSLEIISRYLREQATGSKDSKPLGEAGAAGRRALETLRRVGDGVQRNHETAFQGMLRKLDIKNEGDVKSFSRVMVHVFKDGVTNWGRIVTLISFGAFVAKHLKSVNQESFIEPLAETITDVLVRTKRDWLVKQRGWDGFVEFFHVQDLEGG", "experiment": "Phage ELISA (titration and competition) of phage-displayed BH3 domains", "type": "binding", "conditions": "Bak BH3 mutants; from Table 4e", "description": "In order to create a FLAG-tagged form of the sequence, an oligonucleotide encoding the FLAG epitope was employed to loop-in the required sequence at the N-terminus of the peptide sequences, already fused to gene 3 as described above, using the Kunkel mutagenesis method (Kunkel et al. Methods Enzymol 204:125-139, 1991). For the alanine scanning constructs and other point mutations of the BimBH3 or other BH3 sequence, oligonucleotides with the desired codon mismatch were employed in Kunkel mutagenesis reactions on the FLAG-BimBH3 or FLAG-BadBH3 template. […]\nAll ELISA's were performed as described previously (Fairlie et al. J Biol Chem 279:2125-2134, 2004). […] Following washing with PBS/Tween, bound phage were detected using a horseradish peroxidase-conjugated anti-M13 antibody. […]\nIn an initial assay, the BimBH3 and other BH3 phage were tested for their ability to bind directly to immobilised Bcl-xL and Mcl-1. […] The specificity of the interactions were further assessed using a competition assay in which phage binding to the immobilised protein was competed with the corresponding recombinant protein in solution. The IC50 values obtained are as presented in Table 3 and were very similar to those determined with BimBH3 and BadBH3 synthetic peptides as measured by surface plasmon resonance on a BIAcore instrument (Chen et al. 2005 supra) and using isothermal calorimetry (unpublished data). […]", "data": [{"substance": "V8A (PSSTMGQAGRQLAIIGDDINRRYDSE) [Bim V8A]", "values": [{"measurement": "selectivity among pro-survival proteins, in words", "value": "selective for Mcl-1"}]}, {"substance": "I19A (PSSTMGQVGRQLAIIGDDANRRYDSE) [Bim I19A]", "values": [{"measurement": "selectivity among pro-survival proteins, in words", "value": "selective for Mcl-1"}]}]}
